Patent US20210187118A1

Legend:
[1] = target: TF-glycosylated PDTR MUC1 tandem repeat peptide …-T(TF)-…; test: antigen ELISA on TF-glycosylated PDTR MUC1 peptide, protein A purified antibodies
[2] = target: Tn-glycosylated PDTR MUC1 tandem repeat peptide …-T(Tn)-…; test: antigen ELISA on Tn-glycosylated PDTR MUC1 peptide, protein A purified antibodies
Sequence of Tn-glycosylated PDTR MUC1 tandem repeat peptide …-T(Tn)-… (peptide, as listed by the source limits assumed): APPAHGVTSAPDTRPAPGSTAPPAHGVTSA

Sequence of TF-glycosylated PDTR MUC1 tandem repeat peptide …-T(TF)-… (peptide, as listed by the source limits assumed): as above

EC50 (read off the curve) [1]: 8 ng/mL | EC50 (read off the curve) [2]: 10 ng/mL
Substance: PankoMab N54W (antibody)
